Data on 3 molecules can be found in US11230591.

The assay has as its target pentameric gH complex on infectious CMV (neutralization assays) (human cytomegalovirus). Kind of assay: cell-based or functional assay.

B1: 1-15 (antibody, V domains shown)
VH: QVQLVASGGGLVKPGGSLRLSCAASEFTFSDYYMTWIRQAPGKGLEWVSYISSSGTTIYYADSVKGRFTVSRDNAKNSLFLQMNSLRAEDTALYYCARDSYSKLVDIEAIEAFDIWGQGTMVTVSS
VL: SYELTQPPSVSVGPGRTARITCGANNIGSKSVHWYQQRPGQAPVLVISFDTDRPSGIPERFSGSNSGNTATLTISRVEAGDEADYFCQVWDRTSDHVVFGGGTKLTVL
B1 showed an EC50 Neutralizing of 0.9 ng/mL.

B2: 1-64 (antibody, V domains shown)
VH: QVQLVASGGGLVKPGGSLRLSCAASGFTFSDYYMTWIRQAPGKGLEWVSYISSSGTTIYYADSVKGRFTVSRDNAKNSLFLQMNSLRAEDTALYYCARDSYSKLVDIEAIEAFDIWGQGTMVTVSS
VL: SYELTQPPSVSVGPGRTARITCGANNIGSKSVHWYQQRPGQAPVLVISFDTDRPSGIPERFSGSNSGNTATLTISRVEAGDEADYFCQVWDRTSDHVVFGGGTKLTVL
In turn, B2 displayed an EC50 Neutralizing of 1 ng/mL.

B3: 1-175 (antibody, V domains shown)
VH: QVHLVESGGGLVKPGGSLRLSCAASGFTFSDYYMAWIRRAPGKGLEWISFISGSGRTLYHAESVKGRFTVSRDNAKDSLYLHMHSLRDADTAVYYCARDSYSKLVEIEAIEAFDVWGRGTVVTVSS
VL: SYELAQPPSVSVAPGKPARIACGGDNIGGKSVHWYLQKAGQAPVLVMSYDSDRPSGIPERFSGSNSGNTATLTISRVEAGDEGDYFCQVWDRQTDHVVFGGGTKLTVL
B3 gave an EC50 Neutralizing of 1 ng/mL.
